According to US20140087995A1 (published 2014):
Each block holds one binder with its values, some of them ahead of it. Numbered stars: 1 amine (or outer) side, 2 acyl side, 3 side chain; on linkers, the order of the positions; unused ones are H or OH. Bridge positions count the residues as written; N and C are the ends. Side chains are listed from the residue outwards. Ends that are not written are not given here. * marks the point of attachment. C20 diacid = O=C(O)CCCCCCCCCCCCCCCCCCC(=O)*; γGlu = O=C(O)[C@H](CCC(=O)[*:2])N[*:1]; AEEA = NCCOCCOCC(=O)O

Target: T1, human calcitonin receptor (human, UniProt P30988 25-474)
T1 sequence (looked up): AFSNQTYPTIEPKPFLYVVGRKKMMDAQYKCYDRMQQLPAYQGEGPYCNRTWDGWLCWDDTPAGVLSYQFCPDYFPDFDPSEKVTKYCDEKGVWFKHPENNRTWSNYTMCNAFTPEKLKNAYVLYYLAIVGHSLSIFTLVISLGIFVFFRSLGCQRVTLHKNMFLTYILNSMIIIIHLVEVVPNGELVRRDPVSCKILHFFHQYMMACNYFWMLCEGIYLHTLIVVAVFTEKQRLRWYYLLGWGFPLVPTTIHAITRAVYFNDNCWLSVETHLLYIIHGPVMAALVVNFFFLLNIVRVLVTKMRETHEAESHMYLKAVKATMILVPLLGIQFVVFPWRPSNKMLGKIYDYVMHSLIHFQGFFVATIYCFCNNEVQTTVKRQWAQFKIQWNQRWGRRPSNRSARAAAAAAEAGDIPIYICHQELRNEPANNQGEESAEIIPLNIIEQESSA
Experiment: cell-based or functional assay

B1: N^ε1-[2-[2-[2-[[(4S)-4-carboxy-4-(19-carboxynonadecanoylamino)butanoyl]amino]ethoxy]ethoxy]acetyl]-[Arg17,Pro21,Pro27,His34]-h-amylin (peptide)
peptide: K([AEEA-γGlu-C20 diacid])CNTATCATQRLANFLRHSSPNFGAIPSSTNVGHNTY-NH2
modifications: disulfide 2-7; N-terminus assumed
SMILES: CC[C@H](C)[C@H](NC(=O)[C@H](C)NC(=O)CNC(=O)[C@H](Cc1ccccc1)NC(=O)[C@H](CC(N)=O)NC(=O)[C@@H]1CCCN1C(=O)[C@H](CO)NC(=O)[C@H](CO)NC(=O)[C@H](Cc1c[nH]cn1)NC(=O)[C@H](CCCNC(=N)N)NC(=O)[C@H](CC(C)C)NC(=O)[C@H](Cc1ccccc1)NC(=O)[C@H](CC(N)=O)NC(=O)[C@H](C)NC(=O)[C@H](CC(C)C)NC(=O)[C@H](CCCNC(=N)N)NC(=O)[C@H](CCC(N)=O)NC(=O)[C@@H](NC(=O)[C@H](C)NC(=O)[C@@H]1CSSC[C@H](NC(=O)[C@@H](N)CCCCNC(=O)COCCOCCNC(=O)CC[C@H](NC(=O)CCCCCCCCCCCCCCCCCCC(=O)O)C(=O)O)C(=O)N[C@@H](CC(N)=O)C(=O)N[C@@H]([C@@H](C)O)C(=O)N[C@@H](C)C(=O)N[C@@H]([C@@H](C)O)C(=O)N1)[C@@H](C)O)C(=O)N1CCC[C@H]1C(=O)N[C@@H](CO)C(=O)N[C@@H](CO)C(=O)N[C@H](C(=O)N[C@@H](CC(N)=O)C(=O)N[C@H](C(=O)NCC(=O)N[C@@H](Cc1c[nH]cn1)C(=O)N[C@@H](CC(N)=O)C(=O)N[C@H](C(=O)N[C@@H](Cc1ccc(O)cc1)C(N)=O)[C@@H](C)O)C(C)C)[C@@H](C)O
notes: also called compound 76
- hCTR funct. EC50: 7.37 nM

B3: N^ε1-[2-[2-[2-[[(4S)-4-carboxy-4-(19-carboxynonadecanoylamino)butanoyl]amino]ethoxy]ethoxy]acetyl]-[His14,Arg17,Pro21,Pro27,Arg34]-h-amylin (peptide)
peptide: K([AEEA-γGlu-C20 diacid])CNTATCATQRLAHFLRHSSPNFGAIPSSTNVGRNTY-NH2
modifications: disulfide 2-7; N-terminus assumed
SMILES: CC[C@H](C)[C@H](NC(=O)[C@H](C)NC(=O)CNC(=O)[C@H](Cc1ccccc1)NC(=O)[C@H](CC(N)=O)NC(=O)[C@@H]1CCCN1C(=O)[C@H](CO)NC(=O)[C@H](CO)NC(=O)[C@H](Cc1c[nH]cn1)NC(=O)[C@H](CCCNC(=N)N)NC(=O)[C@H](CC(C)C)NC(=O)[C@H](Cc1ccccc1)NC(=O)[C@H](Cc1c[nH]cn1)NC(=O)[C@H](C)NC(=O)[C@H](CC(C)C)NC(=O)[C@H](CCCNC(=N)N)NC(=O)[C@H](CCC(N)=O)NC(=O)[C@@H](NC(=O)[C@H](C)NC(=O)[C@@H]1CSSC[C@H](NC(=O)[C@@H](N)CCCCNC(=O)COCCOCCNC(=O)CC[C@H](NC(=O)CCCCCCCCCCCCCCCCCCC(=O)O)C(=O)O)C(=O)N[C@@H](CC(N)=O)C(=O)N[C@@H]([C@@H](C)O)C(=O)N[C@@H](C)C(=O)N[C@@H]([C@@H](C)O)C(=O)N1)[C@@H](C)O)C(=O)N1CCC[C@H]1C(=O)N[C@@H](CO)C(=O)N[C@@H](CO)C(=O)N[C@H](C(=O)N[C@@H](CC(N)=O)C(=O)N[C@H](C(=O)NCC(=O)N[C@@H](CCCNC(=N)N)C(=O)N[C@@H](CC(N)=O)C(=O)N[C@H](C(=O)N[C@@H](Cc1ccc(O)cc1)C(N)=O)[C@@H](C)O)C(C)C)[C@@H](C)O
notes: also called compound 84
- hCTR funct. EC50: 5.49 nM

The remaining lines, values ahead:

- hCTR funct. EC50: 0.527 nM
B2: N^ε1-[2-[2-[2-[[(4S)-4-carboxy-4-(19-carboxynonadecanoylamino)butanoyl]amino]ethoxy]ethoxy]acetyl]-[Gly14,Arg17,Pro21,Pro27,Pro31]-h-amylin (peptide)
peptide: K([AEEA-γGlu-C20 diacid])CNTATCATQRLAGFLRHSSPNFGAIPSSTPVGSNTY-NH2
modifications: disulfide 2-7; N-terminus assumed
SMILES: CC[C@H](C)[C@H](NC(=O)[C@H](C)NC(=O)CNC(=O)[C@H](Cc1ccccc1)NC(=O)[C@H](CC(N)=O)NC(=O)[C@@H]1CCCN1C(=O)[C@H](CO)NC(=O)[C@H](CO)NC(=O)[C@H](Cc1c[nH]cn1)NC(=O)[C@H](CCCNC(=N)N)NC(=O)[C@H](CC(C)C)NC(=O)[C@H](Cc1ccccc1)NC(=O)CNC(=O)[C@H](C)NC(=O)[C@H](CC(C)C)NC(=O)[C@H](CCCNC(=N)N)NC(=O)[C@H](CCC(N)=O)NC(=O)[C@@H](NC(=O)[C@H](C)NC(=O)[C@@H]1CSSC[C@H](NC(=O)[C@@H](N)CCCCNC(=O)COCCOCCNC(=O)CC[C@H](NC(=O)CCCCCCCCCCCCCCCCCCC(=O)O)C(=O)O)C(=O)N[C@@H](CC(N)=O)C(=O)N[C@@H]([C@@H](C)O)C(=O)N[C@@H](C)C(=O)N[C@@H]([C@@H](C)O)C(=O)N1)[C@@H](C)O)C(=O)N1CCC[C@H]1C(=O)N[C@@H](CO)C(=O)N[C@@H](CO)C(=O)N[C@H](C(=O)N1CCC[C@H]1C(=O)N[C@H](C(=O)NCC(=O)N[C@@H](CO)C(=O)N[C@@H](CC(N)=O)C(=O)N[C@H](C(=O)N[C@@H](Cc1ccc(O)cc1)C(N)=O)[C@@H](C)O)C(C)C)[C@@H](C)O
notes: also called compound 71

- hCTR funct. EC50: 0.554 nM
B4: N^ε1-[2-[2-[2-[[(4S)-4-carboxy-4-(19-carboxynonadecanoylamino)butanoyl]amino]ethoxy]ethoxy]acetyl]-[His14,Arg17,Pro21,Pro27,Pro31]-h-amylin (peptide)
peptide: K([AEEA-γGlu-C20 diacid])CNTATCATQRLAHFLRHSSPNFGAIPSSTPVGSNTY-NH2
modifications: disulfide 2-7; N-terminus assumed
SMILES: CC[C@H](C)[C@H](NC(=O)[C@H](C)NC(=O)CNC(=O)[C@H](Cc1ccccc1)NC(=O)[C@H](CC(N)=O)NC(=O)[C@@H]1CCCN1C(=O)[C@H](CO)NC(=O)[C@H](CO)NC(=O)[C@H](Cc1c[nH]cn1)NC(=O)[C@H](CCCNC(=N)N)NC(=O)[C@H](CC(C)C)NC(=O)[C@H](Cc1ccccc1)NC(=O)[C@H](Cc1c[nH]cn1)NC(=O)[C@H](C)NC(=O)[C@H](CC(C)C)NC(=O)[C@H](CCCNC(=N)N)NC(=O)[C@H](CCC(N)=O)NC(=O)[C@@H](NC(=O)[C@H](C)NC(=O)[C@@H]1CSSC[C@H](NC(=O)[C@@H](N)CCCCNC(=O)COCCOCCNC(=O)CC[C@H](NC(=O)CCCCCCCCCCCCCCCCCCC(=O)O)C(=O)O)C(=O)N[C@@H](CC(N)=O)C(=O)N[C@@H]([C@@H](C)O)C(=O)N[C@@H](C)C(=O)N[C@@H]([C@@H](C)O)C(=O)N1)[C@@H](C)O)C(=O)N1CCC[C@H]1C(=O)N[C@@H](CO)C(=O)N[C@@H](CO)C(=O)N[C@H](C(=O)N1CCC[C@H]1C(=O)N[C@H](C(=O)NCC(=O)N[C@@H](CO)C(=O)N[C@@H](CC(N)=O)C(=O)N[C@H](C(=O)N[C@@H](Cc1ccc(O)cc1)C(N)=O)[C@@H](C)O)C(C)C)[C@@H](C)O
notes: also called compound 61

- hCTR funct. EC50: 2.14 nM
B5: N^ε1-[2-[2-[2-[[(4S)-4-carboxy-4-(19-carboxynonadecanoylamino)butanoyl]amino]ethoxy]ethoxy]acetyl]-[His14,Arg17,Pro21,Pro27,His34]-h-amylin (peptide)
peptide: K([AEEA-γGlu-C20 diacid])CNTATCATQRLAHFLRHSSPNFGAIPSSTNVGHNTY-NH2
modifications: disulfide 2-7; N-terminus assumed
SMILES: CC[C@H](C)[C@H](NC(=O)[C@H](C)NC(=O)CNC(=O)[C@H](Cc1ccccc1)NC(=O)[C@H](CC(N)=O)NC(=O)[C@@H]1CCCN1C(=O)[C@H](CO)NC(=O)[C@H](CO)NC(=O)[C@H](Cc1c[nH]cn1)NC(=O)[C@H](CCCNC(=N)N)NC(=O)[C@H](CC(C)C)NC(=O)[C@H](Cc1ccccc1)NC(=O)[C@H](Cc1c[nH]cn1)NC(=O)[C@H](C)NC(=O)[C@H](CC(C)C)NC(=O)[C@H](CCCNC(=N)N)NC(=O)[C@H](CCC(N)=O)NC(=O)[C@@H](NC(=O)[C@H](C)NC(=O)[C@@H]1CSSC[C@H](NC(=O)[C@@H](N)CCCCNC(=O)COCCOCCNC(=O)CC[C@H](NC(=O)CCCCCCCCCCCCCCCCCCC(=O)O)C(=O)O)C(=O)N[C@@H](CC(N)=O)C(=O)N[C@@H]([C@@H](C)O)C(=O)N[C@@H](C)C(=O)N[C@@H]([C@@H](C)O)C(=O)N1)[C@@H](C)O)C(=O)N1CCC[C@H]1C(=O)N[C@@H](CO)C(=O)N[C@@H](CO)C(=O)N[C@H](C(=O)N[C@@H](CC(N)=O)C(=O)N[C@H](C(=O)NCC(=O)N[C@@H](Cc1c[nH]cn1)C(=O)N[C@@H](CC(N)=O)C(=O)N[C@H](C(=O)N[C@@H](Cc1ccc(O)cc1)C(N)=O)[C@@H](C)O)C(C)C)[C@@H](C)O
notes: also called compound 80
